Experiment [1] concerns the target Plasmodium berghei M1 aminopeptidase (Plasmodium berghei).
Experiment [2] addresses Plasmodium vivax M1 aminopeptidase (Plasmodium vivax).
Experiment [3] deals with Plasmodium berghei M17 aminopeptidase (Plasmodium berghei).
Experiment [4] addresses T1, Plasmodium falciparum M17 leucine aminopeptidase (Plasmodium falciparum) (UniProt Q8IL11).
T1 sequence: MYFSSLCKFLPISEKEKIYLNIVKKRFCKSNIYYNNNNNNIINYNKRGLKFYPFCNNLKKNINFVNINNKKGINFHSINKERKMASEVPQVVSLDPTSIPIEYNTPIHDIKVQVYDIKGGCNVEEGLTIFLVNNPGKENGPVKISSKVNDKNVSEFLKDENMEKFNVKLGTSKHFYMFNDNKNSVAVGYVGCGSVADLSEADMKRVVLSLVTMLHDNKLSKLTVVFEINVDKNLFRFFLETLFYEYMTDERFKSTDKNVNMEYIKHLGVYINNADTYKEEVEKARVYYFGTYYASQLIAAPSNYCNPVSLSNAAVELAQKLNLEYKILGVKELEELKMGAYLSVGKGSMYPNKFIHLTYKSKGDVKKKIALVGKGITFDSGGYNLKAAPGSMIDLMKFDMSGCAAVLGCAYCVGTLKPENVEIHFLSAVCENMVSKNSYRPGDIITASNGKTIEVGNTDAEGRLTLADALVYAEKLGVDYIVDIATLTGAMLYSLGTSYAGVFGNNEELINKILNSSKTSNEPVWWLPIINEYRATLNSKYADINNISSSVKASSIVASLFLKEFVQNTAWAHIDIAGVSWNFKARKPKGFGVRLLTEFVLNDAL

The target in experiment [5] is T2, Plasmodium vivax M17 aminopeptidase (Plasmodium vivax) (UniProt A5K3U9).
T2 sequence (A5K3U9 74-621, looked up): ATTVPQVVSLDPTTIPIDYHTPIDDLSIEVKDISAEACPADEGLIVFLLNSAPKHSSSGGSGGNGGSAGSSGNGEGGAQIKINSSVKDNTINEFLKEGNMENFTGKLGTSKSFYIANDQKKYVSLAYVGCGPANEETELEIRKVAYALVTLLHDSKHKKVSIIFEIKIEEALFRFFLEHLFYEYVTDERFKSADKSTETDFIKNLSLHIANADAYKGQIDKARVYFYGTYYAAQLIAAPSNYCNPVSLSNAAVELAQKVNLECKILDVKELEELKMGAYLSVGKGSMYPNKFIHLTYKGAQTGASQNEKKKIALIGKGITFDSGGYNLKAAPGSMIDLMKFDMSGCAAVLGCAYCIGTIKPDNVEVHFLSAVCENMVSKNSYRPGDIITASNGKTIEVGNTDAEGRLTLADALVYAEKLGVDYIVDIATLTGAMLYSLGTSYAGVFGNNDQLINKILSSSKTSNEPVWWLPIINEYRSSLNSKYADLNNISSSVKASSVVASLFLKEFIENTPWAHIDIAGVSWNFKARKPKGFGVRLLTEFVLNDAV

No end group written: not given here. *: point of attachment. AMC = Cc1cc(=O)oc2cc(N*)ccc12

As for “Leucine-Leucine-7-amido-4-methyl-coumarin (peptide)”, the results for the Km of hydrolysis (release of NHMec, Michaelis-Menten kinetics) in experiment [1] and in experiment [2] were 28.4 µM and 27.9 µM, respectively. Moreover, the Km of hydrolysis (release of NHMec, Michaelis-Menten kinetics, 1 mM CoCl2) in experiment [3] was 25 µM; in experiment [4] it was 30.8 µM; in experiment [5], 32.9 µM.
As to LLLL-{AMC} [Leucine-Leucine-Leucine-Leucine-7-amido-4-methyl-coumarin], the figures for the Km of hydrolysis (release of NHMec, Michaelis-Menten kinetics) in experiment [1] and in experiment [2] were 33.9 µM and 41.5 µM, respectively. The Km of hydrolysis (release of NHMec, Michaelis-Menten kinetics, 1 mM CoCl2) in experiment [3] came out at 4.6 µM; in experiment [4], 6.9 µM; in experiment [5], 22.6 µM.
